The values that follow come from article PMC13500710.

Numbering of substitutions follows the chain as printed. Read-outs that look alike come from different tables or passages of the source.

What all share (assay): EMSA
A general note: A gel shift assay detects complexes by their altered migration in electrophoresis.

In data set [1] the target is T1, ORC1 full length (Homo sapiens, UniProt Q13415 1-861).
T1 sequence: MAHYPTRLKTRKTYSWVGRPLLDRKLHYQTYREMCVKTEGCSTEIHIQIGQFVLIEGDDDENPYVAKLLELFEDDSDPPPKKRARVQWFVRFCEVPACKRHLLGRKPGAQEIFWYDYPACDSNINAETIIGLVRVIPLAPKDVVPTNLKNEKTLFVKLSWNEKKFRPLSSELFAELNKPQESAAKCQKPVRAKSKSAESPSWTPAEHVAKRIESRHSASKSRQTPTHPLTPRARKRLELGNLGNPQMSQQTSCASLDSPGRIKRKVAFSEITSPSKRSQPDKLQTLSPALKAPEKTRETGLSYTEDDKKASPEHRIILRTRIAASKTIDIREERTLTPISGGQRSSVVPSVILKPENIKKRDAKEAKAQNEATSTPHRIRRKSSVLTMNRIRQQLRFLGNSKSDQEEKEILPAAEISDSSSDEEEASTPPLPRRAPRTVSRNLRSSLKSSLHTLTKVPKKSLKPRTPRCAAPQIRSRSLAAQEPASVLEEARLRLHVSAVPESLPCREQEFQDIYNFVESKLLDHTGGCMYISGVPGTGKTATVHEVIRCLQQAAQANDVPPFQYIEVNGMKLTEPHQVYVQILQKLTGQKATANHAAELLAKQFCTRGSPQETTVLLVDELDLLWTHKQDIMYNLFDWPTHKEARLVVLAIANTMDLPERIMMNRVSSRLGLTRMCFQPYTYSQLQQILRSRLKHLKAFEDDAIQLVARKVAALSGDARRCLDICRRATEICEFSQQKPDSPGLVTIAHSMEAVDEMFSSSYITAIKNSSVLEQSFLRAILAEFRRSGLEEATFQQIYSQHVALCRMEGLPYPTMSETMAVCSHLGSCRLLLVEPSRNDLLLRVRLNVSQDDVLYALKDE

The target in data set [2] is T1, ORC1 full length. The source holds these as a separate data set.
The target in data set [3] is T1, ORC1 full length. This is another data set of the same source.
In data set [4] the target is T2, ORC1 mutant (EYYE) (Homo sapiens, UniProt Q13415 1-861, R297E;S450Y;T593Y;R846E).
T2 sequence: T1 sequence with R297E, S450Y, T593Y, R846E

Data set [5] addresses T3, ORC1 WHD (Homo sapiens, UniProt Q13415 783-861).
T3 sequence: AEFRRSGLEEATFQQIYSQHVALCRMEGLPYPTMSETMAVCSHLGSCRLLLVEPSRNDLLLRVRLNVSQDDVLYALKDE

Data set [6] addresses T4, ORC1 BAH domain (Homo sapiens, UniProt Q13415 1-200).
T4 sequence: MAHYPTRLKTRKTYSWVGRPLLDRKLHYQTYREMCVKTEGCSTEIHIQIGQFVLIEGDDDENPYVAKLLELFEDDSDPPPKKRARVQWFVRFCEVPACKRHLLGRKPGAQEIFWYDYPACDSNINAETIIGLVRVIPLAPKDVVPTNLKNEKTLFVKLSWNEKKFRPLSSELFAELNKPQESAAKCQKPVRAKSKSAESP

Consider GAUGGGAGGAAACGCUAAAGCCCAAGGUUUCAGAGGUGAU (ssRNA) [MYC3], for which the binding result in data set [1] is “no binding”.
As for CAGCCGCCCACUUUUGACAGGCCUGGGCGGGCUUCGCUUA (ssRNA) [MYC1, 32P], the binding result in data set [2] was “no binding”.
Consider CAGCCGCCCACUUUUGACAGGCCUGGGCGGGCUUCGCUUA (ssRNA) [MYC1, biotinylated], for which the binding result in data set [3] is listed as “no binding”.
Take GAGCUCCCAAAUCUCUCCAGAUCUGCUAUCUCUCCUUCCU (ssRNA) [MYC2]: the binding result in data set [1] is “no binding”.
Turning to GTACGCGCGTGGCGTGGCGGTGGGCGCGCAGTGCGTTCTC (ssDNA) [dRM9], the binding result in data set [2] is “no binding”.
In the case of GAGAACGCACUGCGCGCCCACCGCCACGCCACGCGCGUAC (ssRNA) [RM9, biotinylated], the binding result in data set [4], in data set [5] and in data set [6] was “no binding” throughout.
